Residue numbers refer to the chain shown, from its start.
B1: F2.154.1 human-murine chimeric antibody (antibody, human IgG1, kappa, V domains shown)
VH: QVQLQQSGAELVRPGASVKLSCKASGYRFTDYEMHWVKQTPVHGLEWIGTIDPETGNTAYTQKFMDKATLTADKSSSTAYMELRSLTSEDSAVYYCTRGYSFTYWGQGTLATVSA
VL: DVLMTQTPLSLPVSLGDQASISCRSSQNIVHSNGNTYLQWYLQKPGQSPKLLIFKVSNRFSGVPDRFSGSGSGTDFTLKISRVEAEDLGVYYCFQGSHVPFTFGTGTKLEIKR
B2: F2.23.8 human-murine chimeric antibody (antibody, human IgG1, kappa, V domains shown)
VH: B1 VH with R28T, I48F, T50A, N57G, T61N, M65R, D66A, G99F, T103A, A111V
VL: DVVMTQTPLSLPVSLGDQASISCRSSQSLVHSNGNTYLQWYLQKPGQSPKLLIYKVSNRFSGVPDRFSGSGSGTDFTLKITRVEAEDLGVYFCSQSTHVPYTFGSGTKLEIKR
B3: F3.38.7 human-murine chimeric antibody (antibody, human IgG1, kappa, V domains shown)
VH: QVQLQQSGAELVRPGASVKLSCKASGYTFTDYEIHWVKQTPVLGLEWIGAIDPKTGNTAYNQKFMGKATLTADKSSTTAYMDLRSLTSEDSAVYYCTRYFSFAYWGQGTLVTVSA
VL: B1 VL with N28T, I29F, F54Y, F101Y, T105S
B4: F3.81.19 human-murine chimeric antibody (antibody, human IgG1, kappa, V domains shown)
VH: B1 VH with R28T, T61N, M65K, D66G, G99P, F102L, A111V
VL: B1 VL with M4L, N28S, I29F, N35D, F54Y, F101Y, T105S
B5: F2.169.2 human-murine chimeric antibody (antibody, human IgG1, kappa, V domains shown)
VH: EVQLVETGGGLVQPKGSLKLSCAASGFSFNTNAMNWVRQAPGKGLEWVARIRSKSNNYATYYADSVKDRFTISRDDSQSMLYLQMNNLKTEDTAMYYCVRDGYYVLFAYWGQGTLVTVSA
VL: B1 VL with S25F, N28S, H31N, Q39E, Y41F, F54Y
B6: F2.152.3 human-murine chimeric antibody (antibody, human IgG1, kappa, V domains shown)
VH: EVQLQQSGPELVKPGASVKMSCKASGYTFTDYYMTWVKQSHGKSLEWIGRVNPRNGDTTYNQKFEGRATLTLDKSLSTAFMQLNSLTSEDSAVYYCINSKGHFDYWGQGTTLTVSS
VL: B1 VL with N28S, Q39E, Y41F, L51S, F54Y, F101P, T105A, I111L
B7: F2.55.11 human-murine chimeric antibody (antibody, human IgG1, kappa, V domains shown)
VH: EVKLVESGGGLVKPGGSLKLSCAASGLTFSTCTMSWVRQTPAKRLEWVATISSGGGNTYYPDSVKGRFTISRDNARNTLYLQMSSLRSEDTAMYYCVRLYYDGSPYAMDYWGQGTSVTVSS
VL: DIQMTQTTSSLSASLGDRVTISCRASQDISNHLNWYQQKPDGTVKLLIYYTSRLHSGVPSRFSGSGSGTDYSLTISNLEQEDIATYFCQQDSKPPPTFGSGTKLEIKR
B8: F1.153.1 human-murine chimeric antibody (antibody, human IgG1, kappa, V domains shown)
VH: QIQLVQSGPELKKPGETVKISCKASGYTFTTAGMQWVQKMPGKGFKWIGWINTHSGEPQYAEDFKGRFAFSLETSASTAYLQISNLKNEDTATYFCARSFYYHGSSFFYFDYWGQGTTLTVSS
VL: DIVMTQSQKFMSTTVGDRVSITCKASQNVGTAVAWYQQKPGQSPKLLIYSASNRYTGVPDRFTGSGSGADFTLTISNMQSEDLADYFCQQYSRYPLTFGAGTKLELKR
B9: F4.18.4 human-murine chimeric antibody (antibody, human IgG1, kappa, V domains shown)
VH: QVQLHQSGAEMAKPGASVNLSCKTSGFTFTDYGISWVKQRTRQGLEWIGDIYPRHINIYYNEKFKDKATLTADRSSSTAYMELRSMTSEDSAVYFCARRGTTGRGALDYWGQGTSLTVSS
VL: DILLTQSPAILSVSPGERVSFSCRASQSIGTSIHWYQQRTNGSPRLLIKYAFESISGIPSRFGGSGSRTDFTLTINSVESEDIADYYCQQTYNWPYTFGGGTKLEIKR
B10: F4.13.7 human-murine chimeric antibody (antibody, human IgG1, kappa, V domains shown)
VH: QVQLQQPGAELVKPGASVKLSCKASGYTFTNNWVHWVKQRPGQGLEWTGMIHPDSGSTIYNEKFQSKATLTVDKSSSTAYMQLSSLTSEDSAVYYCARGYYDSSSYYAMDYWGQGTSVTVSS
VL: NIQMTQTTSSLSASLGDRVTISCSASQGIFNYLNWYQQKPDGTVKLLIYYTSSLHSGVPSRFSGSGSGTDYSLTISNLEPEDIATYYCQQYSKLPWTFGGGTKLEIKR
B11: F2.39.2 human-murine chimeric antibody (antibody, human IgG1, kappa, V domains shown)
VH: QVQLQQSGAELVRPGASVKVSCKASGYTFTDYEMHWMKQTPVHGLEWIGANEPETGRSAYDQKFKGKATLTADKSSSTAYMELRSLTSEDSAVYYCTRFYSFAYWGQGTLVTVSA
VL: B2 VL with S28G, S32N, Q39H, T81S, S96N, Y101P, S105G
B12: F3.54.12 human-murine chimeric antibody (antibody, human IgG1, kappa, V domains shown)
VH: QVQLQQSGAELVRPGASVKLSCKASGYTFTDYEMHWVKQTPVHGLEWIGAIDPETGNTAYIQKFKGKATLTTDKSSSTAYMELRSLTSEDSAVYYCTRFYSYSHWGQGTTLTVSS
VL: B2 VL with Q39H, G71S, T81S, S96N, Y101P, S105G
B13: F2.92.1 human-murine chimeric antibody (antibody, human IgG1, kappa, V domains shown)
VH: QVQLQQSGAELVRPGASVKLSCKASGYIFSDYEIHWVKQTPVHGLECIGAVDPETGGTAYNQKFKGKATLTADKSSSTAYMELRSLTSEDSAVYFCTRFYSFAYWGQGTLVTVST
VL: B2 VL with A19G, T81S, S94C, P100L, Y101P, S105G

The binders below were run against T1, human GPC3-His protein (human, UniProt P51654 25-559) (assay: ELISA, coated human GPC3, antibody 0.1 nM;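 note: antigen coated on 96-well plates at 1 µg/mL, antibody bound 2 h at 37 °C, detected with HRP-labeled secondary antibody and TMB substrate, acid-stopped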).
T1 construct: Bought protein; also called human GPC3 protein; not shown: His tag

Row | OD450 nm [OD450] | Binder
1 | 1.57 | B1
2 | 1.28 | B2
3 | 1.62 | B3
4 | 0.87 | B4
5 | 1.25 | B5
6 | 1.45 | B6
7 | 1.57 | B7
8 | 0.64 | B8
9 | 0.83 | B9
10 | 1.27 | B10
11 | 1.33 | B11
12 | 1.58 | B12
13 | 1.23 | B13

What follows are binders tested against T1, human GPC3-His protein (assay: ELISA, coated human GPC3, antibody 10 nM;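 note: plate coated with antigen at 1 µg/mL, antibodies bound 2 h at 37 °C, detected via HRP-conjugated secondary antibody and TMB substrate, absorbance read after acid stop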).
Procedure: (§1) The specific method is described as follows: The antigen protein was diluted with PBS to a final concentration of 1 μg/mL, and the diluent was added to a 96-well ELISA plate at 50 μL/well. The plate was sealed with a plastic film and incubated at 4° C. overnight, washed twice with PBS the next day, and a blocking solution [PBS+2% (w/w) BSA] was added for blocking at room temperature for 2 h. […] After incubation at 37° C. for 2 h, the plate was washed 3 times with PBS. A horseradish peroxidase (HRP)-labeled secondary antibody (purchased from Merck, Cat. No. AP113P) was added for incubation at 37° C. for 1 h, and the plate was washed 5 times with PBS. A TMB substrate was added at 50 μL/well for incubation at room temperature for 10 min, then a stop solution (1.0M HCl) was added at 50 μL/well. An ELISA plate reader (Multimode Plate Reader, EnSight, purchased from Perkin Elmer) was used to read OD_{450 nm} values, with results as shown in Table 4 to Table 6, FIG. 1A, FIG. 1B, and FIG. 1C.

Row | OD450 nm [OD450] | Binder
14 | 2.52 | B1
15 | 2.35 | B2
16 | 2.44 | B3
17 | 2.49 | B4
18 | 2.52 | B5
19 | 2.43 | B6
20 | 2.66 | B7
21 | 1.85 | B8
22 | 1.18 | B9
23 | 2.27 | B10
24 | 2.34 | B11
25 | 2.41 | B12
26 | 2.23 | B13

Each binder was assayed against T2, GPC3 endogenously expressed on HepG2 cells (UniProt P51654 25-554) (assay: FACS on HepG2 cells;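 note: flow cytometric binding of chimeric antibodies to cells, read as mean fluorescence intensity, EC50 obtained by curve fitting of the MFI data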).
T2 construct: whole, on cells
Procedure: (§2) The desired cells were expanded to a logarithmic growth phase in a T-75 cell culture flask, the medium was removed by pipetting, and the cells were washed twice with a PBS buffer, and digested with trypsin. Then a complete medium was added to stop the digestion, and the cells were blown into a single cell suspension. After counting, the cells were centrifuged, and the cell pellet was resuspended with an FACS buffer (PBS+2% fetal bovine serum) to 2×10⁶ cells/mL. The cell resuspension solution was added to a 96-well FACS reaction plate at 50 μl/well, and a chimeric antibody sample to be tested was added at 50 μl/well for incubation at 4° C. for 1 h. […] After the plate was centrifuged and washed 3 times with a PBS buffer, 100 μl of the resulting solution was assayed and analyzed by FACS (FACS Canto™, purchased from BD Biosciences). Data analysis was performed by software (FlowJo) to obtain the mean fluorescence intensity (MFI) of the cells. Then, analysis was performed by software (GraphPad Prism8), data were fitted, and EC₅₀ values were calculated.

Row | EC50 [nM] | Max MFI [MFI] | Binder
27 | 0.37 | 5450 | B1
28 | 1.64 | 11300 | B2
29 | 1.2 | 4980 | B3
30 | 2.72 | 5740 | B4
31 | 0.65 | 3980 | B5
32 | 0.23 | 4490 | B6
33 | 0.66 | 1630 | B7
34 | 1.3 | 4100 | B8
35 | 0.92 | 1390 | B9
36 | 0.58 | 1150 | B10
37 | 0.95 | 12700 | B11
38 | 0.83 | 4460 | B12
39 | 0.92 | 14000 | B13

Each binder was assayed against T1, human GPC3-His protein (assay: ELISA, coated human GPC3, antibody 1 nM;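 note: antigen coated at 1 µg/mL on 96-well plates, antibody bound for 2 h at 37 °C, detected with HRP-labeled secondary antibody and TMB, absorbance read at 450 nm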).
Procedure: as §1

Row | OD450 nm [OD450] | Binder
40 | 2.31 | B1
41 | 2.16 | B2
42 | 2.18 | B3
43 | 2.04 | B4
44 | 2.24 | B5
45 | 2.28 | B6
46 | 2.24 | B7
47 | 1.56 | B8
48 | 1.41 | B9
49 | 2.28 | B10
50 | 2.21 | B11
51 | 2.29 | B12
52 | 2.24 | B13

These binders were tested against T1, human GPC3-His protein (assay: ELISA, coated human GPC3, antibody 0.001 nM).

Row | OD450 nm [OD450] | Binder
53 | 0.13 | B1
54 | 0.12 | B2
55 | 0.13 | B3
56 | 0.28 | B4
57 | 0.11 | B5
58 | 0.13 | B6
59 | 0.15 | B7
60 | 0.1 | B8
61 | 0.15 | B9
62 | 0.12 | B10
63 | 0.12 | B11
64 | 0.15 | B12
65 | 0.12 | B13

Each binder was assayed against T1, human GPC3-His protein (assay: ELISA, coated human GPC3, antibody 100 nM;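 note: antibodies bound to antigen-coated 96-well plates (1 µg/mL), 2 h at 37 °C, detected with HRP-labelled secondary antibody and TMB substrate, absorbance read at 450 nm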).

Row | OD450 nm [OD450] | Binder
66 | 2.61 | B1
67 | 2.51 | B2
68 | 2.48 | B3
69 | 2.45 | B4
70 | 2.43 | B5
71 | 2.43 | B6
72 | 2.58 | B7
73 | 2.06 | B8
74 | 1.02 | B9
75 | 2.3 | B10
76 | 2.3 | B11
77 | 2.44 | B12
78 | 2.45 | B13

What follows are binders tested against T1, human GPC3-His protein (assay: ELISA, coated human GPC3, antibody 0.0001 nM).

Row | OD450 nm [OD450] | Binder
79 | 0.09 | B1
80 | 0.1 | B2
81 | 0.09 | B3
82 | 0.1 | B4
83 | 0.1 | B5
84 | 0.1 | B6
85 | 0.11 | B7
86 | 0.11 | B8
87 | 0.16 | B9
88 | 0.1 | B10
89 | 0.1 | B11
90 | 0.13 | B12
91 | 0.11 | B13

The binders below were run against T3, human GPC3 on CHO-K1-human GPC3 cells (clone CHOK1-hGPC3.2B5) (human, UniProt P51654 25-554) (assay: FACS on CHOK1-hGPC3.2B5 cells;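 note: flow cytometry binding of chimeric antibodies to the cells, read out as mean fluorescence intensity, with the half-maximal concentration derived by curve fitting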).
T3 construct: whole, on cells; Stably transfected CHO-K1 clone 2B5
Procedure: as §2

Row | EC50 [nM] | Max MFI [MFI] | Binder
92 | 1.14 | 26700 | B1
93 | 1.48 | 23200 | B2
94 | 0.85 | 16200 | B3
95 | 2.58 | 14100 | B4
96 | 1.06 | 17300 | B5
97 | 0.73 | 2830 | B6
98 | 0.89 | 13600 | B7
99 | 0.91 | 3080 | B8
100 | 0.89 | 2370 | B9
101 | 1.1 | 1710 | B10
102 | 1 | 26500 | B11
103 | 0.72 | 15000 | B12
104 | 0.92 | 29400 | B13

Each binder was assayed against T1, human GPC3-His protein (assay: ELISA, coated human GPC3, antibody 0.01 nM;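 note: Plate-bound antigen coated at 1 µg/mL, antibody incubated 2 h at 37 °C, binding detected by HRP-conjugated secondary antibody with TMB substrate, read as absorbance at 450 nm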).
Procedure: as §1

Row | OD450 nm [OD450] | Binder
105 | 0.38 | B1
106 | 0.29 | B2
107 | 0.38 | B3
108 | 0.19 | B4
109 | 0.27 | B5
110 | 0.32 | B6
111 | 0.43 | B7
112 | 0.15 | B8
113 | 0.26 | B9
114 | 0.3 | B10
115 | 0.34 | B11
116 | 0.48 | B12
117 | 0.32 | B13

Reference: patent publication US20260116991A1 (HAINAN SIMCERE ZAIMING PHARMACEUTICAL, published 2026)
